We go through one molecule from patent US20200225235A1.

In the test the target is anti-GASP-1 polyclonal antibody raised against a GASP-1 fragment consisting of … (SEQ ID NO: 2). Description: competitive ELISA: free peptide against plate-bound BSA-GASP-1 conjugate for the biotinylated antibody. Background: ELISA stands for enzyme-linked immunosorbent assay.

On to EEASPEAVAGVGFESK [GASP-1 peptide … (SEQ ID NO: 2)], for which the difference in OD values between zero and 0.3 ng/ml competing peptide was 1.1 OD (450 nm).
